What was measured:
[1] = target: His6-TRX-PfPPR1 (Plasmodium falciparum apicoplast pentatricopeptide repeat protein 1, with His6-TRX tag) (Plasmodium falciparum); assay: SEC
[2] = target: PfPPR1 minus the His6-TRX tag (tag cleaved by HRV 3C protease) (Plasmodium falciparum); assay: AUC

stoichiometry N [1] | stoichiometry N [2] | Substance
2 |  | His6-TRX-PfPPR1 (Plasmodium falciparum apicoplast pentatricopeptide repeat protein 1, with His6-TRX tag) (natural protein)
 | 2 | PfPPR1 minus the His6-TRX tag (tag cleaved by HRV 3C protease) (natural protein)

From doi:10.1101/388728
